Substrate in the data set: O=C(Nc1cc(Cl)cc(Cl)c1)Nc1cc(Cl)cc(Cl)c1
In words: Kinetics of GST-P using COH-SR4 as a substrate. The data set is classed as biochemical. Conditions: other: COH-SR4 as substrate, 1 mM GSH, pH 6.5, 340 nm, 37.0 °C. The method, then:
The cDNA of GSTP was cloned into the prokaryotic expression plasmid vector, pET30a(+) (Novagen), creating the GSTP-pET30a(+) plasmid free of extraneous sequences. Bam H1 and Xhol restriction sites were used for cloning. This plasmid was transfected into E. coli BL21 (DE3). Protein was expressed in E. coli BL21 (DE3) grown at 37° C. Once the OD600 reached 0.6 protein was induced with 0.4 mM IPTG.
All purification steps were carried out at 4° C. unless otherwise specified. All buffers were prepared fresh and filter sterilized. Briefly, bacteria was lysed in 10 mM K-PO4 buffer pH 7.0 containing 1.4 mM β-mercaptoethanol (Buffer A) and 100 μM PMSF followed by sonication at 50 rpm for 3 times at 30 sec each. […] The supernatant was mixed with GSH-affinity resin for coupling for overnight at 4° C. The unbound proteins were washed with Buffer B until OD at 280 nm is zero. Bound protein (purified GSTP) was eluted with 50 mM Tris-HCl, pH 9.6 containing 1.4 mM β-mercaptoethanol. Elutes protein was dialyzed against Buffer A for overnight and the GSTP protein concentration was checked by Bradford's assay.
Reaction systems were prepared by mixing COH-SR4 (50 μL, various final concentrations of 0˜10 μM), 100 μL of 10 mM GSH (GSH solution in GST assay buffer, pH 6.5), 10 μL of GSTP enzyme (0.52 mg/mL) and having 840 μL GST assay buffer (100 mM K-PO4 buffer, pH 6.5). […]

The results in this text go back to US9808434B2, “Compound for treating cancer and diabetes” (CITY OF HOPE, priority 2011, dated 2017).

What is called Km is the substrate concentration at which the rate is half of its maximum.

B1: GST-P (Homo sapiens) (protein)
chain: MPPYTVVYFPVRGRCAALRMLLADQGQSWKEEVVTVETWQEGSLKASCLYGQLPKFQDGDLTLYQSNTILRHLGRTLGLYGKDQQEAALVDMVNDGVEDLRCKYISLIYTNYEAGKDDYVKALPGQLKPFETLLSQNQGGKTFIVGDQISFADYNLLDLLLIHEVLAPGCLDAFPLLSAYVGRLSARPKLKAFLASPEYVNLPINGNGKQ
notes: made in house; host or cells: E. coli BL21 (DE3)
With B1, the Km was 40 µM.
